Laboratory results as given in the supplement of paper PMC10567573.

B1: LARP4 (parent)
chain: WTVANMEEIKKLTTDPDLILEVLR

Variants of: B1
Assay: protein stability index of a GFP-peptide fusion (GPS, HEK-293T) (PSI 1-6); higher = more stable
Conditions: c terminus: a fixed tail appended
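Further: lentivirally expressed fusions sorted by FACS into six bins by GFP to DsRed ratio, PSI derived from sequencing read proportions per bin multiplied by bin number.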

**Q.** With WTVANMERIKKLTTDPDLILEVLR [E8R] as the variant, how does the protein stability index read?
**A.** 2.37

**Q.** With WTVANMEFIKKLTTDPDLILEVLR [E8F] as the variant, how does the protein stability index read?
**A.** 1.7

**Q.** For WTVANMEAIKKLTTDPDLILEVLR [E8A], which protein stability index is on record?
**A.** 1.5

**Q.** With WTVANMEYIKKLTTDPDLILEVLR [E8Y] as the variant, how does the protein stability index read?
**A.** 2.73

**Q.** With WTVANMEHIKKLTTDPDLILEVLR [E8H] as the variant, how does the protein stability index read?
**A.** 2.89

**Q.** For WTVANMEWIKKLTTDPDLILEVLR [E8W], which protein stability index is on record?
**A.** 1.36

**Q.** With WTVANMENIKKLTTDPDLILEVLR [E8N] as the variant, how does the protein stability index read?
**A.** 2.03

**Q.** Which protein stability index does the source give for WTVANMEGIKKLTTDPDLILEVLR [E8G] here?
**A.** 1.56

**Q.** Which protein stability index does the source give for WTVANMETIKKLTTDPDLILEVLR [E8T] here?
**A.** 1.7

**Q.** Which protein stability index does the source give for WTVANMEEIKKLDTDPDLILEVLR [T13D] here?
**A.** 2.56

**Q.** Which protein stability index does the source give for WTVANMEEIKKLNTDPDLILEVLR [T13N] here?
**A.** 1.92

**Q.** With WTVANMEEIKKLLTDPDLILEVLR [T13L] as the variant, how does the protein stability index read?
**A.** 2.14

**Q.** Which protein stability index does the source give for WTVANMEEIKKLFTDPDLILEVLR [T13F] here?
**A.** 1.82

**Q.** Which protein stability index does the source give for WTVANMEEIKKLMTDPDLILEVLR [T13M] here?
**A.** 1.87

**Q.** Which protein stability index does the source give for WTVANMEEIKKLCTDPDLILEVLR [T13C] here?
**A.** 1.88

**Q.** For WTVANMEEIKKLITDPDLILEVLR [T13I], which protein stability index is on record?
**A.** 2.04

**Q.** For WTVANMEEIKKLETDPDLILEVLR [T13E], which protein stability index is on record?
**A.** 2.24

**Q.** With WTVANMEEIKKLKTDPDLILEVLR [T13K] as the variant, how does the protein stability index read?
**A.** 2.02

**Q.** Which protein stability index does the source give for WTVANMEEIKKLATDPDLILEVLR [T13A] here?
**A.** 2.24

**Q.** With WTVANMEEIKKLQTDPDLILEVLR [T13Q] as the variant, how does the protein stability index read?
**A.** 1.58

**Q.** With WTVANMEEIKKLHTDPDLILEVLR [T13H] as the variant, how does the protein stability index read?
**A.** 1.97

**Q.** For WTVANMEEIKKLVTDPDLILEVLR [T13V], which protein stability index is on record?
**A.** 2.94

**Q.** Which protein stability index does the source give for WTVANMEEIKKLRTDPDLILEVLR [T13R] here?
**A.** 1.82

**Q.** Which protein stability index does the source give for WTVANMEEIKKLSTDPDLILEVLR [T13S] here?
**A.** 1.39

**Q.** With WTVANMEEIKKLYTDPDLILEVLR [T13Y] as the variant, how does the protein stability index read?
**A.** 1.86

**Q.** Which protein stability index does the source give for WTVANMEEIKKLGTDPDLILEVLR [T13G] here?
**A.** 2.23

**Q.** Which protein stability index does the source give for WTVANMEEIKKLWTDPDLILEVLR [T13W] here?
**A.** 1.83

**Q.** For WTVANMEEIKKLPTDPDLILEVLR [T13P], which protein stability index is on record?
**A.** 2.24

**Q.** For WTVANMEEIKKLTCDPDLILEVLR [T14C], which protein stability index is on record?
**A.** 1.77

**Q.** For WTVANMEEIKKLTGDPDLILEVLR [T14G], which protein stability index is on record?
**A.** 2.01

**Q.** Which protein stability index does the source give for WTVANMEEIKKLTRDPDLILEVLR [T14R] here?
**A.** 2.14

**Q.** For WTVANMEEIKKLTSDPDLILEVLR [T14S], which protein stability index is on record?
**A.** 1.91

**Q.** For WTVANMEEIKKLTYDPDLILEVLR [T14Y], which protein stability index is on record?
**A.** 1.65

**Q.** For WTVANMEEIKKLTFDPDLILEVLR [T14F], which protein stability index is on record?
**A.** 1.39

**Q.** With WTVANMEEIKKLTLDPDLILEVLR [T14L] as the variant, how does the protein stability index read?
**A.** 1.99

**Q.** Which protein stability index does the source give for WTVANMEEIKKLTHDPDLILEVLR [T14H] here?
**A.** 3.88

**Q.** With WTVANMEEIKKLTMDPDLILEVLR [T14M] as the variant, how does the protein stability index read?
**A.** 2.54

**Q.** With WTVANMEEIKKLTPDPDLILEVLR [T14P] as the variant, how does the protein stability index read?
**A.** 2.01

**Q.** Which protein stability index does the source give for WTVANMEEIKKLTADPDLILEVLR [T14A] here?
**A.** 2.08

**Q.** For WTVANMEEIKKLTDDPDLILEVLR [T14D], which protein stability index is on record?
**A.** 2.46

**Q.** For WTVANMEEIKKLTNDPDLILEVLR [T14N], which protein stability index is on record?
**A.** 2.52

**Q.** For WTVANMEEIKKLTQDPDLILEVLR [T14Q], which protein stability index is on record?
**A.** 2.59

**Q.** With WTVANMEEIKKLTIDPDLILEVLR [T14I] as the variant, how does the protein stability index read?
**A.** 2.08

**Q.** With WTVANMEEIKKLTEDPDLILEVLR [T14E] as the variant, how does the protein stability index read?
**A.** 2.44

**Q.** With WTVANMEEIKKLTKDPDLILEVLR [T14K] as the variant, how does the protein stability index read?
**A.** 2.21

**Q.** With WTVANMEEIKKLTVDPDLILEVLR [T14V] as the variant, how does the protein stability index read?
**A.** 1.05

**Q.** Which protein stability index does the source give for WTVANMEEIKKLTWDPDLILEVLR [T14W] here?
**A.** 1.75

**Q.** For WTVANQEEIKKLTTDPDLILEVLR [M6Q], which protein stability index is on record?
**A.** 2.25

**Q.** Which protein stability index does the source give for WTVANSEEIKKLTTDPDLILEVLR [M6S] here?
**A.** 2.57

**Q.** Which protein stability index does the source give for WTVANYEEIKKLTTDPDLILEVLR [M6Y] here?
**A.** 1.73

**Q.** For WTVANHEEIKKLTTDPDLILEVLR [M6H], which protein stability index is on record?
**A.** 1.79

**Q.** Which protein stability index does the source give for WTVANREEIKKLTTDPDLILEVLR [M6R] here?
**A.** 2.47

**Q.** For WTVANLEEIKKLTTDPDLILEVLR [M6L], which protein stability index is on record?
**A.** 2.13

**Q.** With WTVANVEEIKKLTTDPDLILEVLR [M6V] as the variant, how does the protein stability index read?
**A.** 1.73

**Q.** For WTVANPEEIKKLTTDPDLILEVLR [M6P], which protein stability index is on record?
**A.** 2.03

**Q.** With WTVANNEEIKKLTTDPDLILEVLR [M6N] as the variant, how does the protein stability index read?
**A.** 2.67

**Q.** Which protein stability index does the source give for WTVANWEEIKKLTTDPDLILEVLR [M6W] here?
**A.** 1.89

**Q.** Which protein stability index does the source give for WTVANIEEIKKLTTDPDLILEVLR [M6I] here?
**A.** 1.63

**Q.** Which protein stability index does the source give for WTVANKEEIKKLTTDPDLILEVLR [M6K] here?
**A.** 1.89

**Q.** For WTVANMEEIRKLTTDPDLILEVLR [K10R], which protein stability index is on record?
**A.** 2.52

**Q.** With WTVANMEEIQKLTTDPDLILEVLR [K10Q] as the variant, how does the protein stability index read?
**A.** 2.88

**Q.** Which protein stability index does the source give for WTVANMEEILKLTTDPDLILEVLR [K10L] here?
**A.** 2.68

**Q.** With WTVANMEEIYKLTTDPDLILEVLR [K10Y] as the variant, how does the protein stability index read?
**A.** 2.03

**Q.** Which protein stability index does the source give for WTVANMEEIAKLTTDPDLILEVLR [K10A] here?
**A.** 2.12

**Q.** For WTVANMEEISKLTTDPDLILEVLR [K10S], which protein stability index is on record?
**A.** 2.07

**Q.** With WTVANMEEIFKLTTDPDLILEVLR [K10F] as the variant, how does the protein stability index read?
**A.** 1.93

**Q.** Which protein stability index does the source give for WTVANMEEIPKLTTDPDLILEVLR [K10P] here?
**A.** 2

**Q.** For WTVANMEEIHKLTTDPDLILEVLR [K10H], which protein stability index is on record?
**A.** 1.84

**Q.** For WTVANMEEIEKLTTDPDLILEVLR [K10E], which protein stability index is on record?
**A.** 2.51

**Q.** For WTVANMEEIGKLTTDPDLILEVLR [K10G], which protein stability index is on record?
**A.** 1.99

**Q.** With WTVANMEEIVKLTTDPDLILEVLR [K10V] as the variant, how does the protein stability index read?
**A.** 2.07

**Q.** With WTVANMEEITKLTTDPDLILEVLR [K10T] as the variant, how does the protein stability index read?
**A.** 1.71

**Q.** With WTVANMEEIWKLTTDPDLILEVLR [K10W] as the variant, how does the protein stability index read?
**A.** 2.68

**Q.** For WTVANMEEIMKLTTDPDLILEVLR [K10M], which protein stability index is on record?
**A.** 2.56

**Q.** For WTVANMEEIIKLTTDPDLILEVLR [K10I], which protein stability index is on record?
**A.** 1.54

**Q.** With WTVANMEEIDKLTTDPDLILEVLR [K10D] as the variant, how does the protein stability index read?
**A.** 2.49

**Q.** With WTVANMEEINKLTTDPDLILEVLR [K10N] as the variant, how does the protein stability index read?
**A.** 2.13

**Q.** For WTVANMEEICKLTTDPDLILEVLR [K10C], which protein stability index is on record?
**A.** 2.02

**Q.** Which protein stability index does the source give for WTVANMREIKKLTTDPDLILEVLR [E7R] here?
**A.** 1.44

**Q.** With WTVANMQEIKKLTTDPDLILEVLR [E7Q] as the variant, how does the protein stability index read?
**A.** 2.28

**Q.** For WTVANMMEIKKLTTDPDLILEVLR [E7M], which protein stability index is on record?
**A.** 1.2

**Q.** With WTVANMVEIKKLTTDPDLILEVLR [E7V] as the variant, how does the protein stability index read?
**A.** 1.93

**Q.** With WTVANMGEIKKLTTDPDLILEVLR [E7G] as the variant, how does the protein stability index read?
**A.** 2.4

**Q.** With WTVANMYEIKKLTTDPDLILEVLR [E7Y] as the variant, how does the protein stability index read?
**A.** 2.18

**Q.** With WTVANMNEIKKLTTDPDLILEVLR [E7N] as the variant, how does the protein stability index read?
**A.** 2.56

**Q.** For WTVANMIEIKKLTTDPDLILEVLR [E7I], which protein stability index is on record?
**A.** 1.94

**Q.** With WTVANMAEIKKLTTDPDLILEVLR [E7A] as the variant, how does the protein stability index read?
**A.** 1.9

**Q.** For WTVANMHEIKKLTTDPDLILEVLR [E7H], which protein stability index is on record?
**A.** 1.59

**Q.** Which protein stability index does the source give for WTVANMTEIKKLTTDPDLILEVLR [E7T] here?
**A.** 1.91

**Q.** With WTVANMCEIKKLTTDPDLILEVLR [E7C] as the variant, how does the protein stability index read?
**A.** 1.58

**Q.** For WTVANMFEIKKLTTDPDLILEVLR [E7F], which protein stability index is on record?
**A.** 2.55

**Q.** For WTVANMDEIKKLTTDPDLILEVLR [E7D], which protein stability index is on record?
**A.** 2.23

**Q.** For WTVANMSEIKKLTTDPDLILEVLR [E7S], which protein stability index is on record?
**A.** 1.7

**Q.** For WTVANMKEIKKLTTDPDLILEVLR [E7K], which protein stability index is on record?
**A.** 1.88
